Assay results as given in patent US20180155451A1 (published 2018).

These binders were tested against T1, FcγRIIb (human, UniProt P31994 43-217) (assay: SPR (Biacore), binding relative to GpH7-A5/GpH7-B3/GpL16-k0 = 100).
T1 construct: extracellular domain; also called 2b; FcgRIIb
T1 sequence (looked up): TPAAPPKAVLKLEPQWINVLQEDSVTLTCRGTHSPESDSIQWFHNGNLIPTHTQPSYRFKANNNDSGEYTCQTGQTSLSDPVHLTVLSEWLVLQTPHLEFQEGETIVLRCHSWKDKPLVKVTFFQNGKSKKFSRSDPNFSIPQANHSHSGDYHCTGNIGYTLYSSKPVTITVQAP
Experimental: Analysis of interaction between objective antibody and the FcγR was carried out using Biacore T100 (GE Healthcare). HBS-EP+ (GE Healthcare) was used as the running buffer, and the measurement temperature was set to 25° C. Chips produced by immobilizing the antigen peptide by the amine coupling method to a Series S Sencor Chip CM5 (GE Healthcare), or alternatively, chips produced by allowing preliminarily biotinylated antigen peptides to interact with and immobilize onto a Series S Sensor Chip SA (certified) (GE Healthcare) were used. Antibodies of interest were captured onto an antigen peptide-immobilized chip, and allowed to interact to each FcγR diluted with running buffer. To regenerate and repeatedly use the chip, the antibodies captured on the chip were washed off by reacting 10 mM glycine-HCl, pH 1.5.
The FcγR-binding activity of each antibody was assessed primarily using as an indicator the FcγR-binding activity and dissociation constant for FcγR.

| Binder | He/Con_2b |
| --- | --- |
| GpH7-A5/GpH7-B3 variant L328_09D/GpL16-k0 (antibody, human IgG1, kappa, also called He Ab L328_09D) heavy 1: not shown heavy 2: not shown light: DIVMTQSPLSLPVTPGEPASISCQASESLVHSNRNTYLHWYLQKPGQSPQLLIYKVSNRFSGVPDRFSGSGSGTDFTLKISRVEAEDVGVYYCSQNTHVPPTFGQGTKVEIERTVAAPSVFIFPPSDEQLKSGTASVVCLLNNFYPREAKVQWKVDNALQSGNSQESVTEQDSKDSTYSLSSTLTLSKADYEKHKVYACEVTHQGLSSPVTKSFNRGEC | 199 % of control |
| GpH7-A5/GpH7-B3 variant N325_07I/GpL16-k0 (antibody, human IgG1, kappa, also called He Ab N325_07I) heavy 1: not shown heavy 2: not shown light: DIVMTQSPLSLPVTPGEPASISCQASESLVHSNRNTYLHWYLQKPGQSPQLLIYKVSNRFSGVPDRFSGSGSGTDFTLKISRVEAEDVGVYYCSQNTHVPPTFGQGTKVEIERTVAAPSVFIFPPSDEQLKSGTASVVCLLNNFYPREAKVQWKVDNALQSGNSQESVTEQDSKDSTYSLSSTLTLSKADYEKHKVYACEVTHQGLSSPVTKSFNRGEC | 171 % of control |
| GpH7-A5/GpH7-B3 variant N325_01G/GpL16-k0 (antibody, human IgG1, kappa, also called He Ab N325_01G) heavy 1: not shown heavy 2: not shown light: DIVMTQSPLSLPVTPGEPASISCQASESLVHSNRNTYLHWYLQKPGQSPQLLIYKVSNRFSGVPDRFSGSGSGTDFTLKISRVEAEDVGVYYCSQNTHVPPTFGQGTKVEIERTVAAPSVFIFPPSDEQLKSGTASVVCLLNNFYPREAKVQWKVDNALQSGNSQESVTEQDSKDSTYSLSSTLTLSKADYEKHKVYACEVTHQGLSSPVTKSFNRGEC | 101 % of control |
| GpH7-A5/GpH7-B3 variant L328_13S/GpL16-k0 (antibody, human IgG1, kappa, also called He Ab L328_13S) heavy 1: not shown heavy 2: not shown light: DIVMTQSPLSLPVTPGEPASISCQASESLVHSNRNTYLHWYLQKPGQSPQLLIYKVSNRFSGVPDRFSGSGSGTDFTLKISRVEAEDVGVYYCSQNTHVPPTFGQGTKVEIERTVAAPSVFIFPPSDEQLKSGTASVVCLLNNFYPREAKVQWKVDNALQSGNSQESVTEQDSKDSTYSLSSTLTLSKADYEKHKVYACEVTHQGLSSPVTKSFNRGEC | 149 % of control |
| GpH7-A5/GpH7-B3 variant P238_15Y/GpL16-k0 (antibody, human IgG1, kappa, also called He Ab P238_15Y) heavy 1: not shown heavy 2: not shown light: DIVMTQSPLSLPVTPGEPASISCQASESLVHSNRNTYLHWYLQKPGQSPQLLIYKVSNRFSGVPDRFSGSGSGTDFTLKISRVEAEDVGVYYCSQNTHVPPTFGQGTKVEIERTVAAPSVFIFPPSDEQLKSGTASVVCLLNNFYPREAKVQWKVDNALQSGNSQESVTEQDSKDSTYSLSSTLTLSKADYEKHKVYACEVTHQGLSSPVTKSFNRGEC | 218 % of control |
| GpH7-A5/GpH7-B3 variant P238_20W/GpL16-k0 (antibody, human IgG1, kappa, also called He Ab P238_20W) heavy 1: not shown heavy 2: not shown light: DIVMTQSPLSLPVTPGEPASISCQASESLVHSNRNTYLHWYLQKPGQSPQLLIYKVSNRFSGVPDRFSGSGSGTDFTLKISRVEAEDVGVYYCSQNTHVPPTFGQGTKVEIERTVAAPSVFIFPPSDEQLKSGTASVVCLLNNFYPREAKVQWKVDNALQSGNSQESVTEQDSKDSTYSLSSTLTLSKADYEKHKVYACEVTHQGLSSPVTKSFNRGEC | 123 % of control |
| GpH7-A5/GpH7-B3 variant P238_03V/GpL16-k0 (antibody, human IgG1, kappa, also called He Ab P238_03V) heavy 1: not shown heavy 2: not shown light: DIVMTQSPLSLPVTPGEPASISCQASESLVHSNRNTYLHWYLQKPGQSPQLLIYKVSNRFSGVPDRFSGSGSGTDFTLKISRVEAEDVGVYYCSQNTHVPPTFGQGTKVEIERTVAAPSVFIFPPSDEQLKSGTASVVCLLNNFYPREAKVQWKVDNALQSGNSQESVTEQDSKDSTYSLSSTLTLSKADYEKHKVYACEVTHQGLSSPVTKSFNRGEC | 120 % of control |
| GpH7-A5/GpH7-B3 variant P238_19Q/GpL16-k0 (antibody, human IgG1, kappa, also called He Ab P238_19Q) heavy 1: not shown heavy 2: not shown light: DIVMTQSPLSLPVTPGEPASISCQASESLVHSNRNTYLHWYLQKPGQSPQLLIYKVSNRFSGVPDRFSGSGSGTDFTLKISRVEAEDVGVYYCSQNTHVPPTFGQGTKVEIERTVAAPSVFIFPPSDEQLKSGTASVVCLLNNFYPREAKVQWKVDNALQSGNSQESVTEQDSKDSTYSLSSTLTLSKADYEKHKVYACEVTHQGLSSPVTKSFNRGEC | 110 % of control |
| GpH7-A5/GpH7-B3 variant P238_09D/GpL16-k0 (antibody, human IgG1, kappa, also called He Ab P238_09D) heavy 1: not shown heavy 2: not shown light: DIVMTQSPLSLPVTPGEPASISCQASESLVHSNRNTYLHWYLQKPGQSPQLLIYKVSNRFSGVPDRFSGSGSGTDFTLKISRVEAEDVGVYYCSQNTHVPPTFGQGTKVEIERTVAAPSVFIFPPSDEQLKSGTASVVCLLNNFYPREAKVQWKVDNALQSGNSQESVTEQDSKDSTYSLSSTLTLSKADYEKHKVYACEVTHQGLSSPVTKSFNRGEC | 221 % of control |
| GpH7-A5/GpH7-B3 variant P238_06M/GpL16-k0 (antibody, human IgG1, kappa, also called He Ab P238_06M) heavy 1: not shown heavy 2: not shown light: DIVMTQSPLSLPVTPGEPASISCQASESLVHSNRNTYLHWYLQKPGQSPQLLIYKVSNRFSGVPDRFSGSGSGTDFTLKISRVEAEDVGVYYCSQNTHVPPTFGQGTKVEIERTVAAPSVFIFPPSDEQLKSGTASVVCLLNNFYPREAKVQWKVDNALQSGNSQESVTEQDSKDSTYSLSSTLTLSKADYEKHKVYACEVTHQGLSSPVTKSFNRGEC | 174 % of control |
| GpH7-A5/GpH7-B3 variant N325_20W/GpL16-k0 (antibody, human IgG1, kappa, also called He Ab N325_20W) heavy 1: not shown heavy 2: not shown light: DIVMTQSPLSLPVTPGEPASISCQASESLVHSNRNTYLHWYLQKPGQSPQLLIYKVSNRFSGVPDRFSGSGSGTDFTLKISRVEAEDVGVYYCSQNTHVPPTFGQGTKVEIERTVAAPSVFIFPPSDEQLKSGTASVVCLLNNFYPREAKVQWKVDNALQSGNSQESVTEQDSKDSTYSLSSTLTLSKADYEKHKVYACEVTHQGLSSPVTKSFNRGEC | 169 % of control |
| GpH7-A5/GpH7-B3 variant N325_03V/GpL16-k0 (antibody, human IgG1, kappa, also called He Ab N325_03V) heavy 1: not shown heavy 2: not shown light: DIVMTQSPLSLPVTPGEPASISCQASESLVHSNRNTYLHWYLQKPGQSPQLLIYKVSNRFSGVPDRFSGSGSGTDFTLKISRVEAEDVGVYYCSQNTHVPPTFGQGTKVEIERTVAAPSVFIFPPSDEQLKSGTASVVCLLNNFYPREAKVQWKVDNALQSGNSQESVTEQDSKDSTYSLSSTLTLSKADYEKHKVYACEVTHQGLSSPVTKSFNRGEC | 111 % of control |
| GpH7-A5/GpH7-B3 variant P238_16H/GpL16-k0 (antibody, human IgG1, kappa, also called He Ab P238_16H) heavy 1: not shown heavy 2: not shown light: DIVMTQSPLSLPVTPGEPASISCQASESLVHSNRNTYLHWYLQKPGQSPQLLIYKVSNRFSGVPDRFSGSGSGTDFTLKISRVEAEDVGVYYCSQNTHVPPTFGQGTKVEIERTVAAPSVFIFPPSDEQLKSGTASVVCLLNNFYPREAKVQWKVDNALQSGNSQESVTEQDSKDSTYSLSSTLTLSKADYEKHKVYACEVTHQGLSSPVTKSFNRGEC | 115 % of control |
| GpH7-A5/GpH7-B3 variant N325_04F/GpL16-k0 (antibody, human IgG1, kappa, also called He Ab N325_04F) heavy 1: not shown heavy 2: not shown light: DIVMTQSPLSLPVTPGEPASISCQASESLVHSNRNTYLHWYLQKPGQSPQLLIYKVSNRFSGVPDRFSGSGSGTDFTLKISRVEAEDVGVYYCSQNTHVPPTFGQGTKVEIERTVAAPSVFIFPPSDEQLKSGTASVVCLLNNFYPREAKVQWKVDNALQSGNSQESVTEQDSKDSTYSLSSTLTLSKADYEKHKVYACEVTHQGLSSPVTKSFNRGEC | 143 % of control |
| GpH7-A5/GpH7-B3 variant N325_13S/GpL16-k0 (antibody, human IgG1, kappa, also called He Ab N325_13S) heavy 1: not shown heavy 2: not shown light: DIVMTQSPLSLPVTPGEPASISCQASESLVHSNRNTYLHWYLQKPGQSPQLLIYKVSNRFSGVPDRFSGSGSGTDFTLKISRVEAEDVGVYYCSQNTHVPPTFGQGTKVEIERTVAAPSVFIFPPSDEQLKSGTASVVCLLNNFYPREAKVQWKVDNALQSGNSQESVTEQDSKDSTYSLSSTLTLSKADYEKHKVYACEVTHQGLSSPVTKSFNRGEC | 177 % of control |
| GpH7-A5/GpH7-B3 variant P238_10E/GpL16-k0 (antibody, human IgG1, kappa, also called He Ab P238_10E) heavy 1: not shown heavy 2: not shown light: DIVMTQSPLSLPVTPGEPASISCQASESLVHSNRNTYLHWYLQKPGQSPQLLIYKVSNRFSGVPDRFSGSGSGTDFTLKISRVEAEDVGVYYCSQNTHVPPTFGQGTKVEIERTVAAPSVFIFPPSDEQLKSGTASVVCLLNNFYPREAKVQWKVDNALQSGNSQESVTEQDSKDSTYSLSSTLTLSKADYEKHKVYACEVTHQGLSSPVTKSFNRGEC | 232 % of control |
| GpH7-A5/GpH7-B3 variant N325_08L/GpL16-k0 (antibody, human IgG1, kappa, also called He Ab N325_08L) heavy 1: not shown heavy 2: not shown light: DIVMTQSPLSLPVTPGEPASISCQASESLVHSNRNTYLHWYLQKPGQSPQLLIYKVSNRFSGVPDRFSGSGSGTDFTLKISRVEAEDVGVYYCSQNTHVPPTFGQGTKVEIERTVAAPSVFIFPPSDEQLKSGTASVVCLLNNFYPREAKVQWKVDNALQSGNSQESVTEQDSKDSTYSLSSTLTLSKADYEKHKVYACEVTHQGLSSPVTKSFNRGEC | 197 % of control |
| GpH7-A5/GpH7-B3 variant P238_04F/GpL16-k0 (antibody, human IgG1, kappa, also called He Ab P238_04F) heavy 1: not shown heavy 2: not shown light: DIVMTQSPLSLPVTPGEPASISCQASESLVHSNRNTYLHWYLQKPGQSPQLLIYKVSNRFSGVPDRFSGSGSGTDFTLKISRVEAEDVGVYYCSQNTHVPPTFGQGTKVEIERTVAAPSVFIFPPSDEQLKSGTASVVCLLNNFYPREAKVQWKVDNALQSGNSQESVTEQDSKDSTYSLSSTLTLSKADYEKHKVYACEVTHQGLSSPVTKSFNRGEC | 312 % of control |
| GpH7-A5/GpH7-B3 variant N325_06M/GpL16-k0 (antibody, human IgG1, kappa, also called He Ab N325_06M) heavy 1: not shown heavy 2: not shown light: DIVMTQSPLSLPVTPGEPASISCQASESLVHSNRNTYLHWYLQKPGQSPQLLIYKVSNRFSGVPDRFSGSGSGTDFTLKISRVEAEDVGVYYCSQNTHVPPTFGQGTKVEIERTVAAPSVFIFPPSDEQLKSGTASVVCLLNNFYPREAKVQWKVDNALQSGNSQESVTEQDSKDSTYSLSSTLTLSKADYEKHKVYACEVTHQGLSSPVTKSFNRGEC | 217 % of control |
| GpH7-A5/GpH7-B3 variant N325_09D/GpL16-k0 (antibody, human IgG1, kappa, also called He Ab N325_09D) heavy 1: not shown heavy 2: not shown light: DIVMTQSPLSLPVTPGEPASISCQASESLVHSNRNTYLHWYLQKPGQSPQLLIYKVSNRFSGVPDRFSGSGSGTDFTLKISRVEAEDVGVYYCSQNTHVPPTFGQGTKVEIERTVAAPSVFIFPPSDEQLKSGTASVVCLLNNFYPREAKVQWKVDNALQSGNSQESVTEQDSKDSTYSLSSTLTLSKADYEKHKVYACEVTHQGLSSPVTKSFNRGEC | 124 % of control |
| GpH7-A5/GpH7-B3 variant L328_10E/GpL16-k0 (antibody, human IgG1, kappa, also called He Ab L328_10E) heavy 1: not shown heavy 2: not shown light: DIVMTQSPLSLPVTPGEPASISCQASESLVHSNRNTYLHWYLQKPGQSPQLLIYKVSNRFSGVPDRFSGSGSGTDFTLKISRVEAEDVGVYYCSQNTHVPPTFGQGTKVEIERTVAAPSVFIFPPSDEQLKSGTASVVCLLNNFYPREAKVQWKVDNALQSGNSQESVTEQDSKDSTYSLSSTLTLSKADYEKHKVYACEVTHQGLSSPVTKSFNRGEC | 172 % of control |
